Measurements from patent US11920136B2, “Transglutaminase-mediated conjugation” (Tallac Therapeutics, Inc., priority 2020, dated 2024).

B1: TNT50a: "an anti-mouse CD22 antibody (SEQ ID NO: 124 and SEQ ID NO: 125) conjugated to mouse CpG 4523 (SEQ ID NO: 121) of DAR1 configuration" (conjugate, listed as Mus musculus)
chain 1: QVQLQQPGAEIVRPGTSVKLSCKASGYTFTDYWMNWVKQRPGQGLEWFGAIDPSDSYTRYNQEFKGKATLTVDTSSTTAYMQLSSLTSEDSAVYFCARSDYTYSFYFDYWGLGTTLTVSS
chain 2: DIVMTQAAFSNPVTLGTSASISCRSSKSLLHSNGITYLYWYLQKPGQSPQLLIYQMSNLASGVPDRFSSSGSGTDFTLRISRVEAEDVGVYYCAQNLELPWTFGGGTKLEIK
DNA: tucgtcgtgacgtt
modifications: antibody-CpG conjugate, DAR1
B2: CD22 Ab-CpG conjugate: "anti-mouse CD22 antibody (SEQ ID NO: 124 and SEQ ID NO: 125) conjugated to mouse CpG 4523 (SEQ ID NO: 121) with a DAR1 configuration" (conjugate, listed as Mus musculus)
chain 1: B1 chain 1
chain 2: B1 chain 2
DNA: tucgtcgtgacgtt
modifications: antibody-CpG conjugate, DAR1

Key:
[1] = system: EMT6 mouse mammary carcinoma cells; experiment: EMT6 breast cancer model (checkpoint inhibitor refractory), intraperitoneal dosing; format: in vivo, BALB/c mice; details: intraperitoneally 2 doses every 3, 5 or 7 days at 10 mg/kg
Protocol: EMT6 mouse mammary carcinoma cells (ATCC) were cultured in Complete RPMI 1640 (RPMI1640+10% FBS (Gibco)) at 37° C. and 5% CO2. Cells were detached with Trypsin 0.25% (Gibco) and washed twice with RPMI 1640 (Gibco). Cells were resuspended at 20E6/mL in RPMI 1640 and kept on ice until use. 100 uL of suspended cells were subcutaneously implanted into the right flank of 6 week old female BALB/c mice (Charles River). Tumor size was measured and recorded twice a week with calipers starting 3 days post implantation until duration of the study, approximately 35 days later. Tumor volume was calculated using the following formula: (length×width×width)/2. Once tumors reached on average 75 mm^3, approximately 3 days post implantation, mice were randomized by tumor size and treatments were initiated. […] TNT50a conjugates were administered intraperitoneally 2 doses every 3, 5 or 7 days at 10 mg/kg.

[2] = system: CT26 mouse colon carcinoma cells; experiment: CT26 model, anti-PD1 non-responders; format: in vivo, BALB/c mice; details: conjugate intravenously 2 doses every 3 days at 10 mg/kg; anti-PD1 intraperitoneal 10 mg/kg
Protocol: 100 uL of suspended cells were subcutaneously implanted into the right flank of 6 week old female BALB/c mice (Charles River).

spleens and tumors = experiment: Immunophenotyping of spleen and tumor in syngeneic models (A20, CT26, EMT6); format: in vivo, BALB/c mice; details: 1 or 2 doses intraperitoneally every 3 days at 10 mg/kg
Protocol: Immunophenotyping of multiple syngeneic models administered with TNT50a were conducted. […] A20 B cell lymphoma, CT26 colon carcinoma, EMT6 mouse mammary carcinoma cells (ATCC) were cultured in Complete RPMI 1640 (RPMI1640+10% FBS (Gibco)) at 37° C. and 5% CO2. Cells were detached with Trypsin 0.25% (Gibco) and washed twice with RPMI 1640 (Gibco). Cells were resuspended at 20E6/mL in RPMI 1640 and kept on ice until use. 100 uL of suspended cells were subcutaneously implanted into the right flank of 6 week old female BALB/c mice (Charles River). Tumor size was measured with calipers. Tumor volume was calculated using the following formula: (length×width×width)/2. Once tumors reached on average 200-300 mm^3, mice were randomized by tumor size and treatments were initiated. The conjugates were administered 1 or 2 doses intraperitoneally every 3 days at 10 mg/kg.
Spleens and tumors were harvested either two or three days post-last injection for immunophenotyping. Spleens were processed into single-cell suspension in ice-cold PBS, lysed with ACK lysis buffer (Gibco), washed twice and re-suspended in PBS supplemented with 2% FBS. Tumor-derived single-cell suspensions were prepared using a cocktail of Collagenase A (Roche), Collagenase D (Roche) and DNAse (Roche) for 45 min at 37° C. […]

[3] = system: EMT6 mouse mammary carcinoma cells; experiment: EMT6 breast cancer model, intratumoral administration; format: in vivo, BALB/c mice; details: intratumorally 2 doses every 3 days at 24 uM
Protocol: 100 uL of suspended cells were subcutaneously implanted into the right flank of 6 week old female BALB/c mice (Charles River). Tumor size was measured and recorded twice a week with calipers starting 7 days post implantation until duration of the study, approximately 25 days later. Tumor volume was calculated using the following formula: (length×width×width)/2. Once tumors reached on average 180 mm^3, approximately 7 days post implantation, mice were randomized by tumor size and treatments were initiated.

4T1 cells = experiment: 4T1 lung metastatic burden; format: in vivo, BALB/C mice; details: 10 mg/kg, 3 doses every 3 days; compared to the control

Molecule	anti-tumor efficacy [1]	tumor volume in anti-PD1 non responders [2]	immune cell changes in spleen and tumor (spleens and tumors)	anti-tumor potency [3]	number of metastatic plaques (4T1 cells)
B1	showed anti-tumor efficacy in all three dosing regimens	tumor volume was reduced	–	–	–
B2	–	–	promotes B cell differentiation, decrease in Bregs, increase in T cell effector function and modulation of suppressive myeloid cells	showed anti-tumor potency	significantly reduced
